The text below walks through data of PMC7018876, “The novel llama-human chimeric antibody has potent effect in lowering LDL-c levels in hPCSK9 transgenic rats” (Clinical and Translational Medicine, 2020).

Assay [1] addresses T1, human proprotein convertase subtilisin/kexin type 9, his tagged antigen (Homo sapiens, UniProt Q8NBP7).
T1 construct: human PCSK9; also called hPCSK9; PCSK9; source: bought: Sinobiological, China, Cat# 29698-H08H
Briefly: SPR; hPCSK9-his on CM5 chip (~800 RU); 6 or 7-point two-fold dilutions of the VHH-based proteins injected; 25 °C; global fit with floating Rmax; Biacore T200. As to conditions: both partners purified. A general note: SPR reads the build-up and loss of mass on a sensor chip optically.

Assay [2] concerns the target T1, human proprotein convertase …. Put plainly: SPR; lysate kinetics screening; hPCSK9-his immobilised on CM5 chip (~18000 RU); supernatants of TES lysates of clones flowed over; 25 °C; binding 120 s, dissociation 140 s; binding value read at ~120 s, stability value at ~135 s; Biacore T200. To be noted: one partner purified.

T1 sequence (Q8NBP7 31-692): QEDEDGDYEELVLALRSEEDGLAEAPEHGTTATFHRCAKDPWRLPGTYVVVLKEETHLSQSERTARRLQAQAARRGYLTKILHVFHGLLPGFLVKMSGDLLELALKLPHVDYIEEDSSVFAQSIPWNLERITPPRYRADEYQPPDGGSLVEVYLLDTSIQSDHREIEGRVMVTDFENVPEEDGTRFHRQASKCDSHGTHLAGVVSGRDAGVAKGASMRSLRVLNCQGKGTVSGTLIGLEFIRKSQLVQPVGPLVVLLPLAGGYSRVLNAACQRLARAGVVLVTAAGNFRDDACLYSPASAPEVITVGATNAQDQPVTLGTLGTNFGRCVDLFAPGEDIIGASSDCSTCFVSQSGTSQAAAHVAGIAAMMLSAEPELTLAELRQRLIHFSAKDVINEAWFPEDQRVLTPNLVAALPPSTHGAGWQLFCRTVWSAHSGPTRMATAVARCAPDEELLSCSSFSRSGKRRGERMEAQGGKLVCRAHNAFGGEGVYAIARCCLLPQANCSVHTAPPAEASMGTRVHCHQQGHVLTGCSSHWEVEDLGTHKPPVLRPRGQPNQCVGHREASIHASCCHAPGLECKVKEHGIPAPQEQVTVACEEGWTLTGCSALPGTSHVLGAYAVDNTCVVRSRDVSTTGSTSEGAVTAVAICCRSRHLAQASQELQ

B1: VHH-H12 (VHH)
VHH: GGGLVQAGGSLRLSCAASRSTFSGYAMAWFRQAPGKEREFVACIEREIPGHPAWSGLTYYADSKKGRFTISRDNAKNTVYLQMNSLKPEDTAVYYCAAGLKYPAQKHYDYDYWGQGTQVTVPS
notes: llama anti-hPCSK9 VHH from an immune phage library; source: E. coli, supernatant of TES lysate (screening); E. coli induced by IPTG, and Pichia pastoris X33, purified (Histrap FF column)
Regarding B1, in assay [1], the Kd (in general, the equilibrium constant for the complex coming apart) turned out to be 704 nM; the koff (usually the first-order rate constant of dissociation) amounted to 0.00524 s⁻¹; the on-rate constant (kon) (commonly a measure of how fast the partners come together) is 7440 M⁻¹ s⁻¹. Moreover, in assay [2], the “binding value (RU)” value came out at 272 RU and the “stability value (RU)” value stood at 373 RU.

B2: VHH-A6 (VHH)
VHH: PGAAAGVGGGSVQAGGSLRLSCAASRYTDRTRCIAWFRQVPGKEREGVACLDRAGGQSAYADSAKGRFTVSQDNAGNTVYLQMDNLIPEDSAMYYCAAAGVGQWYTCLQKFIRDKRSFANWGQGTQVTVSS
notes: as for B1
For B2, in assay [1], binding was characterised by a dissociation constant (Kd) of 29 nM, the koff turned out to be 0.000447 s⁻¹ and the kon was 15400 M⁻¹ s⁻¹. Besides, in assay [2], the “binding value (RU)” value turned out to be 166 RU and the “stability value (RU)” value amounted to 239 RU.

B3: VHH-G8 (VHH)
VHH: DVQLVESGGGSVQAGGSLTLSCVVSGYRGQKICTGWFRQFPGMEREAVARILPRGPNTQYTDSVKGRFTISQDAAKNTVNLQMSSLKPKDTAMYYCAQGWGGASDWALQPRRYNYWGQGTQVTVSS
notes: as for B1
In assay [1], B3 displayed a Kd of 73 nM, a koff of 0.0114 s⁻¹ and a kon of 162000 M⁻¹ s⁻¹. For the same molecule, in assay [2], the “binding value (RU)” value was 132 RU and the “stability value (RU)” value was 160 RU.

B4: VHH-B11 (VHH)
VHH: EVQLVESGGGSVQAGGSLRLSCTVSGYTYSSNCMGWFRQAPGKEHEGVASIYIGGGSTYYADSVKGRFTISQDNAKNTVYLQMNSLKPEDTAMYYCAVGCQGLVDFGYWDQGTQVTVSS
notes: llama anti-hPCSK9 VHH from an immune phage library; 17 kDa on SDS-PAGE; also called monovalent VHH-B11; monovalency VHH-B11; source: E. coli, supernatant of TES lysate (screening); E. coli induced by IPTG, and Pichia pastoris X33, purified (Histrap FF column)
For the molecule B4, in assay [1], the Kd came out at 8.69 nM, the koff came to 0.00235 s⁻¹ and the kon turned out to be 271000 M⁻¹ s⁻¹. Moreover, in assay [2], the “binding value (RU)” value stood at 409 RU and the “stability value (RU)” value was 472 RU.
